Assay results as given in patent publication US20100092467A1 (US Dept. of Health and Human Services, published 2010).
Ends that are not written are not given here. * marks the point of attachment. Biotin = O=C1N[C@H]2[C@H](CS[C@H]2CCCCC(=O)*)N1

Tests used:
[1] = biological target: CD36, murine, endogenous on cells (mouse) (UniProt Q08857); assay: cell-based or functional assay
[2] = biological target: CD47, human, endogenous on cells (human, UniProt Q08722 19-323); assay: cell-based or functional assay

Chain of CD36, murine, endogenous on cells (mouse) (Q08857 whole entry): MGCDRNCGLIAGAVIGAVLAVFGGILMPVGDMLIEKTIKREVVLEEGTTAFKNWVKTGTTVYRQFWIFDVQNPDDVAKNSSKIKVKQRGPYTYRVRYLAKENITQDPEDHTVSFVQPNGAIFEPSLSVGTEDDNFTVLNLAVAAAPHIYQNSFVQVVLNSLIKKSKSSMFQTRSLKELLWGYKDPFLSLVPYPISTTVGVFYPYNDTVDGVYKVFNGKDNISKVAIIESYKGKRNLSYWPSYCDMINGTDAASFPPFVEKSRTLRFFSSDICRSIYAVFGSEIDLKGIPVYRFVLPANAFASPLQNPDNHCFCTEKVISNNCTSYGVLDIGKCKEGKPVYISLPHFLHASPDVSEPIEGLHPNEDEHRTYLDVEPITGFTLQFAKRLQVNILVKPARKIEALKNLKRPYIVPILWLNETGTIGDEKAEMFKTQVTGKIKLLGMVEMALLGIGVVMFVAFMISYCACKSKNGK

Thrombospondin-1 (TSP1), prepared from human platelets (from UniProt P07996 19-1170) (ligand)
NO-stimulated adhesion of MASMC on type I collagen [1]: 22 nM

E3CaG1, recombinant C-terminal regions of TSP1 (from UniProt P07996 646-1170) (ligand)
NO-driven HASMC adhesion to collagen [2]: > 0.4 nM

Ac-WKDFTAYR [peptide 37300 (Ac-WKDFTAYR)]
cGMP signaling IC50** [2]: ~1000 nM

IGWKDFTAAR [peptide 37555 (IGWKDFTAAR)]
cGMP signaling IC50** [2]: ~10000 nM

IGWKNFTAYR [peptide 37297 (IGWKNFTAYR)]
cGMP signaling IC50** [2]: > 10000 nM

IGWHDFTAYR [peptide 37414 (IGWHDFTAYR)]
cGMP signaling IC50** [2]: > 10000 nM

IGWKEFTAYR [peptide 37415 (IGWKEFTAYR)]
cGMP signaling IC50** [2]: 1000 nM

HIGWKDFTAYRWRLS [peptide C6b (HIGWKDFTAYRWRLS)]
cGMP signaling IC50** [2]: ~100 nM

IGWADFTAYR [peptide 37413]
cGMP signaling IC50** [2]: > 10000 nM

IGWKDFAAYR [peptide 37299]
cGMP signaling IC50** [2]: > 10000 nM

Biotin-IGWKDFTAYR [peptide C6d (biotin-IGWKDFTAYR)]
cGMP signaling IC50** [2]: ~100 nM

IGYKDFTAYR [peptide 37417 (IGYKDFTAYR)]
cGMP signaling IC50** [2]: ~100 nM

IGWKDYTAYR [peptide 37298 (IGWKDYTAYR)]
cGMP signaling IC50** [2]: ~100 nM

AGWKDFTAYR [peptide 37416 (AGWKDFTAYR)]
cGMP signaling IC50** [2]: ~1000 nM
